In article PMC9482650, “Quantitative fragmentomics allow affinity mapping of interactomes” (Nature Communications, 2022):

Tests used:
Assay in all cases: holdup assay
Parameters in all cases: key: below the threshold = too weak to quantify, mostly under pKd 3.1 to 4
APBA1_1, Q02410 = biological target: T1, APBA1_1, Q02410
T1 sequence (Q02410 651-752, limits assumed, looked up): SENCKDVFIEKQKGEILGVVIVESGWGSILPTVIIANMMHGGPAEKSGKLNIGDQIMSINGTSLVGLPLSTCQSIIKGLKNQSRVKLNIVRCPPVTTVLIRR

ARHGEF12, Q9NZN5-2 = biological target: ARHGEF12, Q9NZN5-2
CASK, O14936 = biological target: CASK, O14936
DFNB31_1, Q9P202 = biological target: T2, DFNB31_1, Q9P202
T2 sequence (Q9P202 135-233, limits assumed, looked up): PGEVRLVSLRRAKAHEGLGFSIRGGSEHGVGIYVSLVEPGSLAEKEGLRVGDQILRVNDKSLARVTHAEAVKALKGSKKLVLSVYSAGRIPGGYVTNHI

DLG1_3, Q12959 = biological target: DLG1_3, Q12959
FRMPD2_3, Q68DX3 = biological target: FRMPD2_3, Q68DX3
GRID2IP_2, A4D2P6 = biological target: GRID2IP_2, A4D2P6
GRIP1_4, Q9Y3R0 = biological target: T3, GRIP1_4, Q9Y3R0
T3 sequence (Q9Y3R0 467-571, limits assumed, looked up): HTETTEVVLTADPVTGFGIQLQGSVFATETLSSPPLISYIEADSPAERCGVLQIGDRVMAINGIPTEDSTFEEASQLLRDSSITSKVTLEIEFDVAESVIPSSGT

GRIP2_4, Q9C0E4 = biological target: GRIP2_4, Q9C0E4
HTRA1, Q92743 = biological target: HTRA1, Q92743
HTRA3, P83110 = biological target: T4, HTRA3, P83110
T4 sequence (P83110 354-453, limits assumed, looked up): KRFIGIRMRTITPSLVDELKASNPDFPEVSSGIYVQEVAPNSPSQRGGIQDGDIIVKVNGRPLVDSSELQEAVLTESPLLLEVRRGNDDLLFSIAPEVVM

Inadl_3, Q8NI35 = biological target: Inadl_3, Q8NI35
Inadl_4, Q8NI35 = biological target: Inadl_4, Q8NI35
Inadl_5, Q8NI35 = biological target: Inadl_5, Q8NI35
Inadl_6, Q8NI35 = biological target: Inadl_6, Q8NI35
LIN7C, Q9NUP9 = biological target: T5, LIN7C, Q9NUP9
T5 sequence (Q9NUP9 88-185, limits assumed, looked up): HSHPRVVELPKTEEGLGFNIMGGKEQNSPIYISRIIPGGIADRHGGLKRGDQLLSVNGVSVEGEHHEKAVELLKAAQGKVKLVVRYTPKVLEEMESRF

MAGI1_1, Q96QZ7 = biological target: MAGI1_1, Q96QZ7
MAGI3_2, Q5TCQ9 = biological target: MAGI3_2, Q5TCQ9
MPDZ_10, O75970 = biological target: T6, MPDZ_10, O75970
T6 sequence (O75970 1624-1722, limits assumed, looked up): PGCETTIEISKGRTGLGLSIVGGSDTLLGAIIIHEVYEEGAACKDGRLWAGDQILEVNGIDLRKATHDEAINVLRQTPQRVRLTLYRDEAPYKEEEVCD

MPDZ_12, O75970 = biological target: T7, MPDZ_12, O75970
T7 sequence (O75970 1857-1958, limits assumed, looked up): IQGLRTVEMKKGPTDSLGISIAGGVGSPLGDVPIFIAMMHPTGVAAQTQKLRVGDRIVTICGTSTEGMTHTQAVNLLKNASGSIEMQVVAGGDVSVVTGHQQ

MPP7, Q5T2T1 = biological target: T8, MPP7, Q5T2T1
T8 sequence (Q5T2T1 134-230, limits assumed, looked up): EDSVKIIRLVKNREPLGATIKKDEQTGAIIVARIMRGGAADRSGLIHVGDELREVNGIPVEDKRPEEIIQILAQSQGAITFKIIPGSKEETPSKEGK

NHERF2_2, Q15599 = biological target: NHERF2_2, Q15599
PARD3B_1, Q8TEW8 = biological target: T9, PARD3B_1, Q8TEW8
T9 sequence (Q8TEW8 196-299, limits assumed, looked up): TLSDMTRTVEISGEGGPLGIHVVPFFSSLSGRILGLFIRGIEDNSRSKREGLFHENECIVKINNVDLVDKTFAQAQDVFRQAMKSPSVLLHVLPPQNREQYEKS

PDLIM1, O00151 = biological target: PDLIM1, O00151
PTPN13_1, Q12923 = biological target: T10, PTPN13_1, Q12923
T10 sequence (Q12923 1088-1188, limits assumed, looked up): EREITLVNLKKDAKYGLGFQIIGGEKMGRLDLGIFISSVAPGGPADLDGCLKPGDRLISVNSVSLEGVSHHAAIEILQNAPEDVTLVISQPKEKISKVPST

SNTG1, Q9NSN8 = biological target: T11, SNTG1, Q9NSN8
T11 sequence (Q9NSN8 52-150, limits assumed, looked up): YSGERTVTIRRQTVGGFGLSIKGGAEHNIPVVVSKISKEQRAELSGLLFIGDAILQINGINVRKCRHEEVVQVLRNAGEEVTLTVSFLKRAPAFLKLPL

TJP1_3, Q07157 = biological target: TJP1_3, Q07157
[1] = plain residues with an end cap or a label only (N-terminal biotin on a linker: ttds)
[2] = plain residues with an end cap or a label only (N-terminal biotin on a linker: ahx)
[3] = plain residues with an end cap or a label only (N-terminal biotin on a linker: ado-ado)

ARHGEF12, Q9NZN5-2, sequence (Q9NZN5 other isoform, or with tags, fused parts or gaps): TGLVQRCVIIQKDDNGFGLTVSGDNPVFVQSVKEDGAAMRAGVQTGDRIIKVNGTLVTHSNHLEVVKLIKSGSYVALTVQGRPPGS
MAGI3_2, Q5TCQ9, sequence (Q5TCQ9 398-503): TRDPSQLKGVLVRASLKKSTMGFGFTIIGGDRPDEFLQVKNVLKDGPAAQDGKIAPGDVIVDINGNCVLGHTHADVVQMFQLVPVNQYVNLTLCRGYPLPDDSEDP
CASK, O14936, sequence (O14936 487-570): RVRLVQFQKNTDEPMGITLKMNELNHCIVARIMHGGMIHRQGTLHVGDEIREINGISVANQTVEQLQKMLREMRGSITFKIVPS
GRIP2_4, Q9C0E4, sequence (Q9C0E4 446-548): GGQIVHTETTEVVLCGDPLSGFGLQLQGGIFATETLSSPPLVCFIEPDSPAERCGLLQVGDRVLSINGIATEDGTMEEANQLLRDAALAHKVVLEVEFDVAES
Inadl_5, Q8NI35, sequence (Q8NI35 673-780): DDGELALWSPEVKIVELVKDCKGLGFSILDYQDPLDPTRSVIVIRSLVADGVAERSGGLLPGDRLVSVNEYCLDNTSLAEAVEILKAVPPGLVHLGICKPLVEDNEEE
Inadl_3, Q8NI35, sequence (Q8NI35 359-469): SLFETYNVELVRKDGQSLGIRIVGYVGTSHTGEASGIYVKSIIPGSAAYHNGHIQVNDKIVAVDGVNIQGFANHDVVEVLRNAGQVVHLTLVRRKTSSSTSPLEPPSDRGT
HTRA1, Q92743, sequence (Q92743 360-477): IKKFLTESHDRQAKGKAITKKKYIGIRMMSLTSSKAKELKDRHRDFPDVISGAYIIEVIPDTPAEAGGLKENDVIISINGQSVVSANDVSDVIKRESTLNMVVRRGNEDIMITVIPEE
Inadl_6, Q8NI35, sequence (Q8NI35 1058-1167): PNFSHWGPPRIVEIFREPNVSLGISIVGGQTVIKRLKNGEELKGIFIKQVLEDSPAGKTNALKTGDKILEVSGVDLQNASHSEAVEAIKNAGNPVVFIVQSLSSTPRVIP
GRID2IP_2, A4D2P6, sequence (A4D2P6 272-370): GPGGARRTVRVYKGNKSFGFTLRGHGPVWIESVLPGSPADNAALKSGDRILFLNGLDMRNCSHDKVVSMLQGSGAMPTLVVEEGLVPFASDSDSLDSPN
DLG1_3, Q12959, sequence (Q12959 457-571): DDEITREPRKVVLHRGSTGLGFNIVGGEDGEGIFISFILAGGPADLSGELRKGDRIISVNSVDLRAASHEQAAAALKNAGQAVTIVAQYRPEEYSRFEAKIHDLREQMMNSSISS
NHERF2_2, Q15599, sequence (Q15599 142-238): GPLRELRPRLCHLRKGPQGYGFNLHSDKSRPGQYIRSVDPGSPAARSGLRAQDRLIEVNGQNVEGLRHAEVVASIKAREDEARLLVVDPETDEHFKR
Inadl_4, Q8NI35, sequence (Q8NI35 547-651): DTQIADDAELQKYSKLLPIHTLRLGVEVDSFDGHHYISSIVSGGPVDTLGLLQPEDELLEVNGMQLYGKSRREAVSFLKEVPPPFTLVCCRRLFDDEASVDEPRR
MAGI1_1, Q96QZ7, sequence (Q96QZ7 1-106): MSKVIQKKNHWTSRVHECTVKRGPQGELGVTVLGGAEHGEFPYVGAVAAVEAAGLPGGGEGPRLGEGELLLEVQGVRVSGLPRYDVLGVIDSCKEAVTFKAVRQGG
FRMPD2_3, Q68DX3, sequence (Q68DX3 1073-1166): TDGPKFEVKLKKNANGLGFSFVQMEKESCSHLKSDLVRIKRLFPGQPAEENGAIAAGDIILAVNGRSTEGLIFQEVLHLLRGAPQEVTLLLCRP
PDLIM1, O00151, sequence (O00151 1-87): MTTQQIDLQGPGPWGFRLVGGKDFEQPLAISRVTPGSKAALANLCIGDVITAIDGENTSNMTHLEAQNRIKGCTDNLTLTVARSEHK
TJP1_3, Q07157, sequence (Q07157 416-512): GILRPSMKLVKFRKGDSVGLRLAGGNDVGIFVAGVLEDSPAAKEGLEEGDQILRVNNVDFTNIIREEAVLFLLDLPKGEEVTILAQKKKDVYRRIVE

KQVVPFSSSV [GDA, Q9Y2T3]
pKd (APBA1_1, Q02410; [1]): below the threshold | pKd (ARHGEF12, Q9NZN5-2; [1]): 3.98 | pKd (CASK, O14936; [1]): below the threshold | pKd (DFNB31_1, Q9P202; [1]): below the threshold | pKd (DLG1_3, Q12959; [1]): below the threshold | pKd (FRMPD2_3, Q68DX3; [1]): below the threshold | pKd (GRID2IP_2, A4D2P6; [1]): 3.6 | pKd (GRIP1_4, Q9Y3R0; [1]): below the threshold | pKd (GRIP2_4, Q9C0E4; [1]): below the threshold | pKd (HTRA1, Q92743; [1]): below the threshold | pKd (HTRA3, P83110; [1]): below the threshold | pKd (Inadl_3, Q8NI35; [1]): below the threshold | pKd (Inadl_4, Q8NI35; [1]): below the threshold | pKd (Inadl_5, Q8NI35; [1]): below the threshold | pKd (Inadl_6, Q8NI35; [1]): below the threshold | pKd (LIN7C, Q9NUP9; [1]): below the threshold | pKd (MAGI1_1, Q96QZ7; [1]): below the threshold | pKd (MAGI3_2, Q5TCQ9; [1]): 3.81 | pKd (MPDZ_10, O75970; [1]): 3.93 | pKd (MPDZ_12, O75970; [1]): 3.66 | pKd (MPP7, Q5T2T1; [1]): below the threshold | pKd (NHERF2_2, Q15599; [1]): below the threshold | pKd (PARD3B_1, Q8TEW8; [1]): below the threshold | pKd (PDLIM1, O00151; [1]): below the threshold | pKd (PTPN13_1, Q12923; [1]): below the threshold | pKd (SNTG1, Q9NSN8; [1]): 3.71 | pKd (TJP1_3, Q07157; [1]): below the threshold

GARVSKETPL [MAPK12, P53778]
pKd (APBA1_1, Q02410; [1]): below the threshold | pKd (ARHGEF12, Q9NZN5-2; [1]): 4.34 | pKd (CASK, O14936; [1]): below the threshold | pKd (DFNB31_1, Q9P202; [1]): 3.95 | pKd (DLG1_3, Q12959; [1]): 3.95 | pKd (FRMPD2_3, Q68DX3; [1]): below the threshold | pKd (GRID2IP_2, A4D2P6; [1]): 3.53 | pKd (GRIP1_4, Q9Y3R0; [1]): below the threshold | pKd (GRIP2_4, Q9C0E4; [1]): below the threshold | pKd (HTRA1, Q92743; [1]): below the threshold | pKd (HTRA3, P83110; [1]): below the threshold | pKd (Inadl_3, Q8NI35; [1]): below the threshold | pKd (Inadl_4, Q8NI35; [1]): below the threshold | pKd (Inadl_5, Q8NI35; [1]): below the threshold | pKd (Inadl_6, Q8NI35; [1]): 3.55 | pKd (LIN7C, Q9NUP9; [1]): below the threshold | pKd (MAGI1_1, Q96QZ7; [1]): below the threshold | pKd (MAGI3_2, Q5TCQ9; [1]): 4.17 | pKd (MPDZ_10, O75970; [1]): below the threshold | pKd (MPDZ_12, O75970; [1]): below the threshold | pKd (MPP7, Q5T2T1; [1]): below the threshold | pKd (NHERF2_2, Q15599; [1]): 4.09 | pKd (PARD3B_1, Q8TEW8; [1]): below the threshold | pKd (PDLIM1, O00151; [1]): below the threshold | pKd (PTPN13_1, Q12923; [1]): below the threshold | pKd (SNTG1, Q9NSN8; [1]): below the threshold | pKd (TJP1_3, Q07157; [1]): below the threshold

KDECVIATEV [DLL1, O00548]
pKd (APBA1_1, Q02410; [2]): below the threshold | pKd (ARHGEF12, Q9NZN5-2; [2]): 4.44 | pKd (CASK, O14936; [2]): below the threshold | pKd (DFNB31_1, Q9P202; [2]): below the threshold | pKd (DLG1_3, Q12959; [2]): below the threshold | pKd (FRMPD2_3, Q68DX3; [2]): below the threshold | pKd (GRID2IP_2, A4D2P6; [2]): 3.48 | pKd (GRIP1_4, Q9Y3R0; [2]): below the threshold | pKd (GRIP2_4, Q9C0E4; [2]): below the threshold | pKd (HTRA1, Q92743; [2]): 4.04 | pKd (HTRA3, P83110; [2]): below the threshold | pKd (Inadl_3, Q8NI35; [2]): 3.5 | pKd (Inadl_4, Q8NI35; [2]): below the threshold | pKd (Inadl_5, Q8NI35; [2]): below the threshold | pKd (Inadl_6, Q8NI35; [2]): below the threshold | pKd (LIN7C, Q9NUP9; [2]): below the threshold | pKd (MAGI1_1, Q96QZ7; [2]): below the threshold | pKd (MAGI3_2, Q5TCQ9; [2]): below the threshold | pKd (MPDZ_10, O75970; [2]): 3.48 | pKd (MPDZ_12, O75970; [2]): below the threshold | pKd (MPP7, Q5T2T1; [2]): below the threshold | pKd (NHERF2_2, Q15599; [2]): below the threshold | pKd (PARD3B_1, Q8TEW8; [2]): below the threshold | pKd (PDLIM1, O00151; [2]): below the threshold | pKd (PTPN13_1, Q12923; [2]): below the threshold | pKd (SNTG1, Q9NSN8; [2]): 3.94 | pKd (TJP1_3, Q07157; [2]): below the threshold

PDSYHRRDFW [U2AF2, P26368]
pKd (APBA1_1, Q02410; [3]): below the threshold | pKd (ARHGEF12, Q9NZN5-2; [3]): 3.52 | pKd (CASK, O14936; [3]): below the threshold | pKd (DFNB31_1, Q9P202; [3]): 3.57 | pKd (DLG1_3, Q12959; [3]): 3.72 | pKd (FRMPD2_3, Q68DX3; [3]): below the threshold | pKd (GRID2IP_2, A4D2P6; [3]): below the threshold | pKd (GRIP1_4, Q9Y3R0; [3]): below the threshold | pKd (GRIP2_4, Q9C0E4; [3]): below the threshold | pKd (HTRA1, Q92743; [3]): 4.14 | pKd (HTRA3, P83110; [3]): 4.01 | pKd (Inadl_3, Q8NI35; [3]): below the threshold | pKd (Inadl_4, Q8NI35; [3]): below the threshold | pKd (Inadl_5, Q8NI35; [3]): below the threshold | pKd (Inadl_6, Q8NI35; [3]): below the threshold | pKd (LIN7C, Q9NUP9; [3]): below the threshold | pKd (MAGI1_1, Q96QZ7; [3]): below the threshold | pKd (MAGI3_2, Q5TCQ9; [3]): below the threshold | pKd (MPDZ_10, O75970; [3]): below the threshold | pKd (MPDZ_12, O75970; [3]): below the threshold | pKd (MPP7, Q5T2T1; [3]): below the threshold | pKd (NHERF2_2, Q15599; [3]): 3.79 | pKd (PARD3B_1, Q8TEW8; [3]): 4.1 | pKd (PDLIM1, O00151; [3]): below the threshold | pKd (PTPN13_1, Q12923; [3]): below the threshold | pKd (SNTG1, Q9NSN8; [3]): below the threshold | pKd (TJP1_3, Q07157; [3]): below the threshold
